Measurements: publication doi:10.1101/2021.03.16.435520 (bioRxiv, 2021)

Biological target: the molecule itself
Assay: cross-linking

B1: IRE1-KR-R887A, unphosphorylated (domain or fragment)
chain: GSSPSLEQDDGDEETSVVIVGKISFCPKDVLGHGAEGTIVYRGMFDNRDVAVKRILPECFSFADREVQLLRESDEHPNVIRYFCTEKDRQFQYIAIELCAATLQEYVEQKDFAHLGLEPITLLQQTTSGLAHLHSLNIVHRDLKPHNILISMPNAHGKIKAMISDFGLCKKLAVGRHSFSRRSGVPGTEGWIAPEMLSEDCKENPTYTVDIFSAGCVFYYVISEGSHPFGKSLQRQANILLGACSLDCLHPEKHEDVIARELIEKMIAMDPQKRPSAKHVLKHPFFWSLEKQLQFFQDVSDRIEKESLDGPIVKQLERGGRAVVKMDWRENITVPLQTDLAKFRTYKGGSVRDLLRAMRNKKHHYRELPAEVRETLGSLPDDFVCYFTSRFPHLLAHTYRAMELCSHERLFQPYYFHEPPEPQPPVTPDAL
stoichiometry N: 2
